Where a chain is given by its changes, count along the chain named.

We go through five molecules from patent US20190077858A1 (KM BIOLOGICS, published 2019).

Experiment [1] concerns the target chymase cleavage-type IL-18 (UniProt Q14116). The experiment is described as follows: cell-based or functional assay.
In experiment [2] the target is human cell-derived natural IL-18 (human) (UniProt Q14116). In words: cell-based or functional assay.
In experiment [3] the target is T1, human IL-18 (MBL Medical & Biological Laboratories, Co., Ltd.) (human, UniProt Q14116 37-193, biotinylated (Biotin-PEAC5-maleimide or Biotin-AC5 Sulfo-OSu) in the streptavidin plate ELISAs and the panning; not labelled in the receptor binding and KG-1 assays).
T1 construct: Bought protein; also called human interleukin-18; biotinylated human IL-18
T1 sequence (looked up): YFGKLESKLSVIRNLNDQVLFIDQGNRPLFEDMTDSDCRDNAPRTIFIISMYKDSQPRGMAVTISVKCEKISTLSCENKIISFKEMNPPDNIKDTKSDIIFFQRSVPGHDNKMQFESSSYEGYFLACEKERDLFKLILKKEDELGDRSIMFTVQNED
In words: ELISA: biotinylated human IL-18 on streptavidin plate, anti-mouse IgG/HRP. As for the experimental part: The biotinylated human IL-18 was diluted to 1 μg/mL with PBS (Sigma-Aldrich Corp.), added at 100 μL/well to Streptavidin plates (Nunc), and incubated at room temperature for 1 hour to immobilize the human IL-18. The plates were washed with PB ST, and human IL-18BPa-hFc (R&D Systems, Inc.) diluted to 10 μg/mL with 1% BSA-PBS was added at 100 μL/well to the plates and incubated at 37° C. for 1 hour to form a complex of IL-18 and IL-18BP. The plates were washed with PBST, and 4A6D scFv-mFc was added at 100 μL/well to the plates and incubated at 37° C. After 1 hour, the plates were washed with PBST, and a detection antibody anti-mouse IgG/HRP (Invitrogen Corp.) was added at 100 μL/well to the plates and incubated at 37° C. After 1 hour, the plates were washed with PBST, and TMB (Sigma-Aldrich Corp.) was added at 100 μL/well to the plates to develop color. After 30 minutes, the reaction was terminated with 1 M sulfuric acid, and the color values (O.D. 450 nm/650 nm) were measured using a microplate reader (Molecular Devices, Inc.).

Experiment [4] deals with T1, human IL-18 (MBL Medical & Biological …). The experiment is described as follows: panning of an scFv phage library on biotinylated human IL-18 on streptavidin magnetic beads.
Experiment [5] has the same target. The experiment is described as follows: ELISA, biotinylated human IL-18 on streptavidin plate, HRP detection antibody, O.D. 450nm/650nm. The procedure:
The binding activity of the obtained scFv phages, scFv, and IgG prepared by a standard method (conventional method) was evaluated by ELISA. The biotinylated human IL-18 or the biotinylated mouse IL-18 was diluted to 1 μg/mL with PBS (Sigma-Aldrich Corp.), added at 100 μL/well to Streptavidin plates (Nunc), and incubated at room temperature for 2 hours to immobilize the IL-18. After the immobilization, the plates were washed with PBST, and each obtained scFv phage, scFv, or IgG was added at 100 μL/well to the plates and incubated at 37° C. After 1 hour, the plates were washed with PBST, and a detection antibody anti-M13/HRP (GE Healthcare Japan Corp.), anti-His tag/HRP (Bethyl Laboratories, Inc.), anti-V5 tag/HRP (Bethyl Laboratories, Inc.), anti-mouse IgG/HRP (Invitrogen Corp.), or anti-hFc/HRP (Cosmo Bio Co., Ltd., The binding site) was added at 100 μL/well to the plates and incubated at 37° C. After 1 hour, the plates were washed with PBST, and TMB (Sigma-Aldrich Corp.) was added at 100 μL/well to the plates to develop color. After 30 minutes, the reaction was terminated with 2 N sulfuric acid, and the color values (O.D. 450 nm/650 nm) were measured using a microplate reader (Molecular Devices, Inc.).

Experiment [6] shares this target. In words: cell-based or functional assay.
Experiment [7] addresses T2, mouse IL-18 (MBL Medical & Biological Laboratories, Co., Ltd.) (mouse, UniProt P70380 36-192, biotinylated (Biotin-PEAC5-maleimide or Biotin-AC5 Sulfo-OSu)).
T2 construct: also called biotinylated mouse IL-18
T2 sequence (looked up): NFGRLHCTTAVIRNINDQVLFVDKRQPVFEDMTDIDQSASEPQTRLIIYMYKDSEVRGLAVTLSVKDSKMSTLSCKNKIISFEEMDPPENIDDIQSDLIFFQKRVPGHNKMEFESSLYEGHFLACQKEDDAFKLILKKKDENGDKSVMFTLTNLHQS
The experiment is described as follows: ELISA on biotinylated cytokine on streptavidin plates.

Experiment [8] addresses T3, human IL-33 (MBL Medical & Biological Laboratories, Co., Ltd.) (human, UniProt O95760 112-270, limits assumed, biotinylated (Biotin-PEAC5-maleimide or Biotin-AC5 Sulfo-OSu)).
T3 construct: also called biotinylated human IL-33
T3 sequence (looked up): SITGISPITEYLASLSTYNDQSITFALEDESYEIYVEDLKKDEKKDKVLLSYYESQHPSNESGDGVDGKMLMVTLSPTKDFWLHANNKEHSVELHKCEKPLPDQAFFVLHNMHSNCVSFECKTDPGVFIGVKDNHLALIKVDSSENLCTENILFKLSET
Described as above.

For experiment [9], the target named is T4, human IL-1β (Funakoshi Corp.) (human, UniProt P01584 117-269, biotinylated (Biotin-PEAC5-maleimide or Biotin-AC5 Sulfo-OSu)).
T4 construct: also called biotinylated human IL-1β
The description is as above.

Experiment [10] has as its target T5, rat IL-18 (Acris Antibodies GmbH) (rat, UniProt P97636 37-194, limits assumed, biotinylated (Biotin-PEAC5-maleimide or Biotin-AC5 Sulfo-OSu)).
T5 construct: also called biotinylated rat IL-18
T5 sequence (looked up): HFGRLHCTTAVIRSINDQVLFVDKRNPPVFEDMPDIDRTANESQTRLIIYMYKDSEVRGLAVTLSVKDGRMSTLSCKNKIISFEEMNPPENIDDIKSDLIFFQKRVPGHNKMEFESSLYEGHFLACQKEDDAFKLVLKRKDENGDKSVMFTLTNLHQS
The experiment is described as above.

As for Negative control antibody, the Amount of IFN-γ produced in experiment [1] came to 109 pg/mL; in experiment [2], 134 pg/mL.

B1: 4A6D scFv-mFc (Fc fusion)
scFv: EVQLVESGGGLVQPGGSMRLSCTASGFTFDEYAMSWVRQAPGKGLEWVSGISTGGGGTYYADSVEGRFTISRDNSKNTLYLQMNSLRAEDTAVYYCAKPWLSGSRSGDFWGQGTLVTVSSASTGGGGSGGGGSGGGGSQSALTQPASVSGSPGQSITISCTGTSSDVGGYNYVSWYQQHPGKAPKLLIYEVSHRPSGVSDRFSGSKSGNTASLTISGLQAEDEADYYCSSFTSSSSLYVFGTGTKLTVL
notes: not shown: mouse Fc (mFc) and any junction to it
Regarding B1, in experiment [3], the 50% effective concentration (EC50 (read off the curve)) is ~0.008 µg/mL.

B2: 4A6D scFv phage (scFv)
scFv: B1 scFv
modifications: displayed on phage
notes: the phage coat fusion is not described; not shown: phage coat protein fusion (display partner) and any tags; not described
With B2, the binding result in [4] is “binds”.

B3: 4A6S scFv phage (scFv)
scFv: B1 scFv with D30S
modifications: displayed on phage
notes: as for B2
In the case of B3, the binding result in [4] is given as “binds”.

B4: IgG molecule-type 4A6S (antibody, V domains shown)
VH: EVQLVESGGGLVQPGGSMRLSCTASGFTFSEYAMSWVRQAPGKGLEWVSGISTGGGGTYYADSVEGRFTISRDNSKNTLYLQMNSLRAEDTAVYYCAKPWLSGSRSGDFWGQGTLVTVSS
VL: QSALTQPASVSGSPGQSITISCTGTSSDVGGYNYVSWYQQHPGKAPKLLIYEVSHRPSGVSDRFSGSKSGNTASLTISGLQAEDEADYYCSSFTSSSSLYVFGTGTKLTVL
notes: IgG prepared by a standard method; also called human anti-human IL-18 antibody 4A6S
Turning to B4, the “EC50 (read off the curve)” value in [5] was ~0.02 µg/mL. The “Neutralizing ability (IC50, nM)” value in experiment [6] was found to be 0.013 nM. Besides, the binding result in experiment [7], in [8], in experiment [9] and in [10] was “no binding” each time.
